Two molecules from patent US20250109206A1 can be followed below.

For orientation: Kd means the constant that tells how readily two partners part at equilibrium. What is called kon is a measure of how fast the partners come together. The term koff denotes a measure of how fast the partners let go of each other.

Test [1] addresses human recombinant CD3 δε heterodimer (human) (UniProt P07766). Briefly: SPR (Biacore 8K), Fab captured, CD3 δε heterodimer as analyte. On the technique in general: Surface plasmon resonance follows binding to a sensor surface in real time, without labels.
Test [2] has the same target. In words: SPR (Biacore), Fab captured on anti-human Fab chip, human CD3 δε heterodimer as analyte, 1:1 binding fit.
Test [3] deals with cynomolgus monkey recombinant CD3 δε heterodimer (cynomolgus) (UniProt Q95LI5). Briefly: SPR (Biacore), Fab captured on anti-human Fab chip, cyno CD3 δε heterodimer as analyte, 1:1 binding fit.

Numbering of substitutions follows the chain as printed.

Sequence of human recombinant CD3 δε heterodimer (human) (P07766 23-126, stated change not applied, chain 1 of 2): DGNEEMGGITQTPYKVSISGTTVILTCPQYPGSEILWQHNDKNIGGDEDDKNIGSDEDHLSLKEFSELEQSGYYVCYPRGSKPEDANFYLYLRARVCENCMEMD
Sequence of human recombinant CD3 δε heterodimer (human) (P04234 22-105, stated change not applied, chain 2 of 2, further chain): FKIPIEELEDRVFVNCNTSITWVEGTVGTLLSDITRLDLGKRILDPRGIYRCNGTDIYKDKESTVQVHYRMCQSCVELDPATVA
Sequence of cynomolgus monkey recombinant CD3 δε heterodimer (cynomolgus) (Q95LI5 22-117, stated change not applied, chain 1 of 2): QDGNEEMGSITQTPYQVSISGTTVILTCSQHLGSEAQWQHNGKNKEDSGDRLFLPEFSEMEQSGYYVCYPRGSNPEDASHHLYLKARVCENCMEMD
Sequence of cynomolgus monkey recombinant CD3 δε heterodimer (cynomolgus) (Q95LI8 22-105, stated change not applied, chain 2 of 2, further chain): as the sequence (P04234 22-105, stated change not applied, chain 2 of 2, further chain) above, with I5V, N15K, I20V, S32T, D33N, I34N, T64A, S74N, V83L counted along it

B1: Anti-CD3 Fab-001 (Fab, V domains shown)
VH: EVQLVESGGGLVQPGGSLRLSCAASGFTFNTYAMNWVRQAPGKGLEWVARIRSKYNNYATYYADSVKDRFTISRDDSQSILYLQMNSLKTEDTAVYYCVRHGNFGNSYVSWFAYWGQGTLVTVSS
VL: QAVVTQEPSLTVSPGGTVTLTCRSSTGAVTTSNYANWVQQKPDHLPRALIGGTNKRAPGTPARFSGSLLGDKAALTLSGVQPEDEAEYYCALWYSNLWVFGGGTKLTVL
As for B1, the dissociation constant Kd in test [1] was 29 nM. Further, the kon in test [2] stood at 162000 M⁻¹ s⁻¹. In test [3], the Kd amounted to 28.4 nM, the off-rate constant (koff) came out at 0.00448 s⁻¹ and the kon was 158000 M⁻¹ s⁻¹.

B2: Anti-CD3 Fab-002 (Fab, V domains shown)
VH: B1 VH with A49G, D68G, Q78K, S79N, I80S, V99A
VL: B1 VL with T60V, L77I, V80A, E87I
Consider B2, for which, in test [1], the dissociation constant Kd came out at 46 nM. The on-rate constant (kon) in test [2] was determined as 433000 M⁻¹ s⁻¹. In test [3], the dissociation constant (Kd) came to 71.8 nM, the koff stood at 0.0113 s⁻¹ and the association rate constant (kon) is 157000 M⁻¹ s⁻¹.
